What is called koff is the rate constant with which the complex falls apart. The low end stands for slow dissociation, the high end for fast dissociation. By IC50 is commonly meant the concentration needed to halve the response being measured.

The text below walks through data of patent publication US20090297504A1 (published 2009).

Where no end group is shown, it is not given here.

Assay [1] has as its target Murine APRIL (K104-L241) thioredoxin fusion protein (murine) (UniProt Q9D777). Kind of assay: SPR (BIAcore 3000), APRIL immobilized, receptor as analyte, 1:1 model.
Assay [2] deals with T1, Human BAFF (residues 82-285) (human, UniProt Q9Y275 82-285).
T1 construct: also called BAFF82-285
Kind of assay: competition ELISA; immobilized BAFF, biotinylated miniBR3 tracer (FIG. 7). For orientation: In an ELISA, binding on a coated surface is turned into a signal by an enzyme label.
Procedure: The plate was washed with PBS and blocked for 1 hr with 200 μl of 0.2% BSA in PBS at room temperature. […] The plate was washed with PBS/Tween-20 and incubated with 100 μl/well of 0.1 U/ml Streptavidin-POD (Boehringer Mannheim) for 15 minutes at room temperature. After washing the plate with PBS/0.05% Tween-20 followed by a final wash in PBS, the plate was incubated for 5 min with 100 μl/well PBS substrate solution containing 0.8 mg/ml OPD (Sigma) and 0.01% H₂O₂.

Assay [3] has as its target T1, Human BAFF (residues 82-285). Kind of assay: SPR (BIAcore 3000), BAFF immobilized, receptor as analyte. In general terms: In SPR one partner is held on a chip, and binding of the other changes the refractive index at the surface.
Procedure: Measurement of binding constants for receptors to ligands. […] CM5 chips from BIAcore were docked according to manufacturer instructions. Then, BIAcore system was primed with 0.2 μm filtered buffer containing 10 mM Hepes pH 7.2, 150 mM NaCl, 0.005% Tween20. After buffer priming, the flow cells were normalized with 70% glycerol. Each flow cell surface was activated individually in preparation for linkage of the ligand to the chip with a 1:1 mixture of EDC(N-ethyl-N′-(3-dimethyl aminopropyl)-carbodiimide hydrochloride) and NHS(N-hydroxysuccinimide). […] Generally, the ligand to be immobilized (30 μg/ml in 10 mM NaOAc, pH 5 buffer) was injected into the system at 40 μl/min. Once approximately 400 RU was generated, the flow cell was blocked with ethanolamine. […] The system was then primed again.
The ligand-receptor complex was allowed to dissociate by washing the flow cell at 30 μl/min for 600 seconds. Alternatively, if several binding measurements over the same flow cell were to be performed, the ligand-receptor complex was allowed to dissociate by washing the flow cell at 30 μl/min for 900 seconds. Sensorgrams were recorded for each binding assay. A 1:1 Langmuir binding equation was used to simultaneously fit the association and dissociation rates of the ligand-analyte interactions. kₐ, kd, KD were calculated using curve fit analysis software provided with the BiaCore instrument

T1 sequence (Q9Y275 82-285): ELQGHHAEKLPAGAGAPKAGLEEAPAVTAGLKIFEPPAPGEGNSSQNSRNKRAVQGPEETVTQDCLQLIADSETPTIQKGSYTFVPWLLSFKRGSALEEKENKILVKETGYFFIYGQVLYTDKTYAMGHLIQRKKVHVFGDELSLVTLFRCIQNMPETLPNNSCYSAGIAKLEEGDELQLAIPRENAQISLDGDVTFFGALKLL
Murine APRIL (K104-L241) thioredoxin fusion protein (murine), sequence (Q9D777 104-241, form in doubt): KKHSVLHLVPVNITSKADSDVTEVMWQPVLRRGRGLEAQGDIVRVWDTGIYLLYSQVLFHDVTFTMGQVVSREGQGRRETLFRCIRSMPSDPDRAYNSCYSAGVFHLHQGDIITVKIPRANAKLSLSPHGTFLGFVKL

The molecule AGQCSQNEYFDSLLHACIPCQLRCSSNTPPLTCQRYCNASVTNSVKG (Fc fusion, not shown: a dimerising Fc or GST, also called wt BCMA-Fc; BCMA-Fc wt) [BCMA-Fc (BCMA(wt)-Fc immunoadhesin)] registered a koff in assay [1] of 0.0001 s⁻¹. In assay [2], the IC50 lay within 7 to 10 nM.

B1: BCMA ECD from baculovirus expression (human BCMA residues 4-53, His-tagged) (receptor, not shown: small tags and cut ends)
chain: MAGQCSQNEYFDSLLHACIPCQLRCSSNTPPLTCQRYCNASVTNSVKGTN
modifications: not fully specified (N-terminus); ends and bridges not checked; also: mixture of glycosylated and non-glycosylated species
notes: also called BCMA(baculovirus); baculovirus BCMA
As to B1, in assay [3], the binding result is on record as “no binding (tested: analyte 6.25 nM to 200 nM)”.
